# Test results as given in publication PMC10359615, “Mechanistic insight into AP-endonuclease 1 cleavage of abasic sites at stalled replication fork mimics”.
# B1: Cy3-Rec-PTJ (mixed)
# DNA 1: ACTCCTTCCGCACGTAATTTTTGACGCAC
# DNA 2: TGACTCTTCTGCGTTCGCTGATGCGCCGACGGGTGCGTCAAAAATTACGTGCGGAAGGAGT
# modifications: THF 7 nt from the junction
# Tests used:
# [1] = biological target: APE1Dead (catalytically dead APE1) (human, UniProt P27695 1-318, D210N;E96Q); experiment: competition; FRET; DNA pre-saturated with 75 nM Cy5-RPA; APE1Dead completely exchanges for RPA; EMSA: 50 mM Tris pH 8, 1 mM EDTA, 0.2 mg/ml BSA, 1 mM DTT, 5% sucrose, room temperature, 5 nM DNA; FRET: 20 mM HEPES pH 7.5, 150 mM KCl, 5 mM MgCl2, 5 mM CaCl2, 1 mM DTT, ionic strength 200 mM with KCl, 23 C; details: protein: recombinant; label: Cy3 at primer 3' end; 3' recessed primer-template junction, 5' ssDNA overhang 33 nt
# APE1Dead (catalytically dead APE1), sequence (P27695 whole entry E96Q/D210N): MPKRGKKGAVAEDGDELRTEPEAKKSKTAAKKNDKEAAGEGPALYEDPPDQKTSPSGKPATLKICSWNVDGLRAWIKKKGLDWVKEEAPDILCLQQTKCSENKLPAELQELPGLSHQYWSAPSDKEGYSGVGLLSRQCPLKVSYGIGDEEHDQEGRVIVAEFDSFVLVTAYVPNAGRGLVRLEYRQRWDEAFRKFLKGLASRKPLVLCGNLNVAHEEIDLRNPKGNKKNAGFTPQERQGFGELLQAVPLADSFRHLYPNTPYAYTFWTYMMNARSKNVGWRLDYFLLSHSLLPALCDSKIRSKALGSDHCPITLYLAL
# [2] = biological target: RPA (RPA1/RPA2/RPA3 heterotrimer) (human, UniProt P27694;P15927;P35244 1-616;1-270;1-121); experiment: mass photometry; 4:1 RPA:DNA; a single RPA per DNA; EMSA: 50 mM Tris pH 8, 1 mM EDTA, 0.2 mg/ml BSA, 1 mM DTT, 5% sucrose, room temperature, 5 nM DNA; FRET: 20 mM HEPES pH 7.5, 150 mM KCl, 5 mM MgCl2, 5 mM CaCl2, 1 mM DTT, ionic strength 200 mM with KCl, 23 C; details: protein: recombinant; copies: 1;1;1
# RPA (RPA1/RPA2/RPA3 heterotrimer), sequence (P27694 whole entry, chain 1 of 3): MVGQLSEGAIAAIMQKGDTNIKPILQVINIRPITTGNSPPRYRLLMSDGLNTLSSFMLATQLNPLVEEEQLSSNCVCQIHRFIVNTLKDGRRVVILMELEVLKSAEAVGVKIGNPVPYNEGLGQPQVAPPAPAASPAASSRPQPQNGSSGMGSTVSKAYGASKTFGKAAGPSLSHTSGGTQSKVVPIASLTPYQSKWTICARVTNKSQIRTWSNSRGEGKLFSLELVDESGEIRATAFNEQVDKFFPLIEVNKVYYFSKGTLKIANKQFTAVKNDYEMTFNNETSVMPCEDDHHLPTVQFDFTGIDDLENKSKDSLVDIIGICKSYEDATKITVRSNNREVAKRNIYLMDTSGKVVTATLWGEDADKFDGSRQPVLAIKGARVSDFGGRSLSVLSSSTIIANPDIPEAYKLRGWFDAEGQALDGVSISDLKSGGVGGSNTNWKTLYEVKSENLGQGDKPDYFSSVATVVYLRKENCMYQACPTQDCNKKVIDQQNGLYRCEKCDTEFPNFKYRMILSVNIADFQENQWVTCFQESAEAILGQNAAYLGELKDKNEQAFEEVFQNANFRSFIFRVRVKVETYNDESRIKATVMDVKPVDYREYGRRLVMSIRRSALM
# RPA (RPA1/RPA2/RPA3 heterotrimer), sequence (P15927 whole entry, chain 2 of 3): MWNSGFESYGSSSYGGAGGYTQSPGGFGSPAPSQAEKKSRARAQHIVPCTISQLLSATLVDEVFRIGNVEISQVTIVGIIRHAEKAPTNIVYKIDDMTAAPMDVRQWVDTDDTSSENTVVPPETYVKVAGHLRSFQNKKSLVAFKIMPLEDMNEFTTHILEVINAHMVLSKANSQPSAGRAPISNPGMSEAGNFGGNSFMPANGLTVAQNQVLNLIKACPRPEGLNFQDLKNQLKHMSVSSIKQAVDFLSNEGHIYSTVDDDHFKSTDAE
# RPA (RPA1/RPA2/RPA3 heterotrimer), sequence (P35244 whole entry, chain 3 of 3): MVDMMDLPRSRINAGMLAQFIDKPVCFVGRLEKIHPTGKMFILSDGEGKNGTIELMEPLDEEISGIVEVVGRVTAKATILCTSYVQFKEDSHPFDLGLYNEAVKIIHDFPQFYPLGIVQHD
Binder,binding result [1],binding result [2]
B1,binds,–
TTTTTTTTTTTTTTTTTTTTTTTTTTTTTTTTTTT (ssDNA) [(dT)35],–,binds
